From the nanobody polyreactivity screen of Harvey et al. (2022)

Assay: yeast display, Sf9 membrane polyspecificity reagent, FACS + sequencing; frameworks hold sequencing errors
Method in brief: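 A nanobody's polyreactivity label depends on the gate it was sorted from. Yeast display cells were stained with 10% biotinylated, detergent-solubilized Sf9 membrane reagent for 1 hour at 4 °C, enriched on streptavidin microbeads and sorted by FACS. The low and high (top ~1%) gates were set on anti-HA fluorescence for expression and streptavidin fluorescence for reagent binding.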

Row | Sequence | polyreactivity (PSR sort gate)
1 | QVQLVESGGGLVQAGGSLRLSCAASGIIFWHYAMGWYRQAPGKERELVAAISSRGGYTYYADSVKGRFTISRDNAKNTVSLQMNSLKPEDTAVYYCNAGYYTHRYRFLVQGDYWGQGTQVTVSS | high polyreactivity
2 | QVQLVESGGGIVQAGGSLRLSCAASGRTFQPYAMGWYRQAPGKERELVAAITSIGGSTFYADSVKGRFTISRDNAKNTVYLQMNSLKPEDTAVYYCARRGYYRSKWERDYWGQGTQVTVSS | low polyreactivity
3 | QVQLVESGGGLVQAGGSIRLSCAASGNTFRYYAMGWYRQAPGKERELVAGISRRGGSTYYADSVKGRFTISRDNAKNTVYLQMNSLKPEDTAVYYCNAVGGNGAVVAYGYWGQGTQVTVSS | high polyreactivity
4 | QVQLVESGGGLVQAGGSLRLSCAASGIIFFKYAKGWYRQAPGKEKELVAAITSGGSTYYADSVKGRFTISRDNAKHTVYLQMNSLKPEDTAFYYCAAAGGRFIRYGYWGQGTQVTVSS | high polyreactivity
5 | QVQLVESGGGLVQAGGSLRLSCAASGRIFYFNTMGWYRQAHGKEIELVAAITRNGGSTYYADSVKWRFTISRDNAKNTVYFQMNSLKPEDTAVYYCNARYRAAKRGKAWYRYDYWGQGTQVTVSS | high polyreactivity
6 | QVQLVESGGGLVQAGGSLRLSCAASGSIFHYYAMGWYRQAPGKERELVAAISSVGSTYYADSVKGRFTISRDNAKNTVYLQINSLKPEDTAVYYCAAEAYAKRYVDRYSWYYYWGQGTQVTVSS | high polyreactivity
7 | QVQLVESGGGLVQAGGSLRLSCAASGSTFSLYAMGWYRQAPGKERELVASITWGGGSTYADSVKGRFTISRDNAKNTVYLQMNSLKPEDTAVYYCARKYRYRVLYDFAYDHWGQGTQVTVSS | low polyreactivity
8 | QVQLEESGGGLVQAGGSLRLSCAASGRIHVYTMGWSRQAPGKERELVATITWSGTSTNYADSVKGRFTISRDNAKNTVYFQMNSLKPEDTAVYYCAADISGVLSVSNVRGFDYWGQGTQVTVSS | low polyreactivity
9 | QVQLVESGGGLVQAGGSLRLSCAASGRIFKWYAMGWYRQAPGKEREFVAGIRWGGGRTHYADSVKGRFTISRDNAKNTVYLQMNSLKPEDTAVYYCAATSIGRYKSRLDYWGQGTQVTVSS | high polyreactivity
10 | QVQLVESGGGLVQAGGSLRLSCAASGFIFWKNAMGWYRQAPGKERELVAAISWSGGRTYYADSVKGRFTISRDNAKNTFYLQINSLKPEETAVYYCNAAGRYKPGAPYDYWGQGTQVTVSS | low polyreactivity
11 | QVQLVESGGGLVQAGGSLRLSCAASGFTFDTYGMGWYRQAPGKERELVAAITGDGDSTYYADSVKGRFTISRDNAKNTVYLQMNSLKPEDTAVYYCATDQDVVGYWTIYYYAWGYEYCGQGTQVTVSS | low polyreactivity
12 | QVKLVESGGGLVQAGGSLRLSCAASGRIFRYYVMGWYRQAPGKERELVAAITSGGSTYYADSVKGRFTISRDNAKNTVYLQMNSLKPEDTAVYYCNVVGRYGSFRSAEMNYWGQGTQVTVSS | high polyreactivity
13 | QVQLVESGGGLVQAGGSLRLSCAASGSIFTDYAMGWYRQAPGKERELVATITWSDASTYYTDSVKGRFTISRDNAKNTVYLQMNSLIPEDTAVYYCARRSRYSKGYDYWGQGTQVTVSS | low polyreactivity
14 | QVQLVESGGGLVQAGGSLRLSCAASGSIFYYNAMGWYRQAPGKERELDANISWNGASTYYADSVKGRFTISRDNAKNSVYLQMLSLKPEDTAVYYCATAGKGDPPWLPSEVTDYYYWGQGTQVTVSL | low polyreactivity
15 | QVQLVESVRGVVQAGGSLRLSCASSVFTFRWYAMGWFRQAPGKESELVADITRHGGSTYYADSVKGRFTISRDNAKNTVYLQMNSLKPEDTAVYYCAADLSWYDWEDDYWGQGTQVTVSS | low polyreactivity
16 | QVQLVESGGGLVQAGGSLRLRCAASGFIFARYAMGWYRQAPGKERELVASITCRGTSTRYADSVKGRFTISRDNAKNTVYLEMNSLKPEDTAVYYCNAARLSYSWVPSEMDFWGQGTQVTVSS | high polyreactivity
17 | QLQLVESGGGLVQAGGSLRLSCAASGRTFYRNGKGWYIQAPGKERELVATISSGGITNYADSVKGRFTISRDNAKNTVYLQMNSLKPEDTAVYYCNAKKAYYGRGMNYWGQGTQVTVSS | low polyreactivity
18 | QVQLQERGSGLVQAGGSLRLTCAESGAIFPAYLMGWYRQPPGKERELVAGISYGSITYCADSVKGRFNIIRDNAKNTVYLQMNSLKPEDTAVKYCAVWRPGGDEYYYWGQGTQVTVSS | low polyreactivity
19 | QVQLVESGGGLVQAGGSLRLSCAASGFIFDAYVMGWYRQAPGKERELVAAITSSGGSTYYADSVKGRFTISRDNAKNTVYLQMNSLKPEDTAVYYCAATYWPWFVGYTYDLDYWGQGTQVTVSS | low polyreactivity
20 | QVQLVESGGGLVQAGGSLRLSCAASVYIFQSNVMGWYRQAPGKESELLAAITVSGGSTYYADSVKGRFTISRDNGKNTVYLQMKSLKPEDTAVYYCNKVGVKFRVDGWYDYWGQATQVTVSS | high polyreactivity
21 | QVQLVESGGGLVQAGGSLRLSCAASGSTFIYYAMGWYRKAPGKEREFVAAISYRGGSTYYADSVKGRFTISRDNAKNTVYLQMNSLKPEDTAVYYCAASYRKWNDYWGQGTQVTVSS | high polyreactivity
22 | QVQLVESGGGLVQAGGSLRLICAASGRIFRGNAMGWYRQAPGKERELVATISSDGSTNYADSVKGRFTISRDNAKNSVYLQMNSLKPEDTAVYYCAKGFYTITPHGMDYWGQGTQVTVSS | low polyreactivity

Row | Sequence | polyreactivity (PSR sort gate)
23 | QVQLVESGRGLVQAGGSLRLSCAASGSTFLDYAMGWYRQAPGKERELVAAINGSGSRTYYADSVKGRFTISRDNAKNTVYLQMNRLKPEDTAVYYCAHEYGYWGQGTQVTVSS | low polyreactivity
24 | QVQLVESGGGLFQAGGSLRLSCAASGRIFAYYTMGWYIQAPGKERELVAAITKRGGSTYYADSVKGRFTISRDNAKNTFYLQMNSLKPEDTAVYYCAADPNRYRYRSPHDYWGQGTQVTVSS | high polyreactivity
25 | QVQLVESGGGLVQAGGSLRLSCAASGRTFRYNAMGWYRQAPGKERELVASISWRGGSTYYADSVKGRFTISRDNAKNTVYLPMNSLKPEDTAVYYCAADAAHSEYDDWGQGTQVTVSS | high polyreactivity
26 | QVQLVESGGGLVQAGGSLRLSCAASGSIFRNYAMGWYRQAPGKERELVASIRYSGGRTNYADSVKGRFTISRDNAKNTVYLQMNSLKPEDTAVYYCAADPGYGWQRAYYYWGQGTQVTVSS | high polyreactivity
27 | QVQLVESGGGLVQAGGSLRLSCAASGFILYYNAMGWYRQAPGKERELVADISRRGTSTYYADSVKGRFTISRDNAKNTVYLQMNRLKPEDTAVYYCKAVPSARTQPYNGWGQGTQVTVSS | high polyreactivity
28 | QVQLVESGGGLVQAGGSLRLSCAASGSIFYDNDMGWYRQAPGNERELVAAISWSASDTYYADSVKGRFTISRDNAKNTVYLQMNSLKPDDTAVYYCNAEVYEWYVVYSALDYWGQGTQVTVSS | low polyreactivity
29 | QVQLVESGGGLVQAGGSLRLSCAASGNTFVAYTMGWYRPAPGKERELVAAISWRGGTTYYADSVKGRFTISRDNAKNTVYLQMNSLKPEDTAVYYCAARTSYISHGYVTHGLYYWGQGTQVTVSS | high polyreactivity
30 | QVQLVESGGGLVQAGGSLRLSCAASGSTFEYYAMGWYRQAPGKERELVATMSIDGRTNYADSVKGRFTISRDNAKNTVYLQMNSLKPEDTAVYYCAARPYWRHRYDYWGQGTQVTVSS | low polyreactivity
31 | QVQLVESGGGLVQAGGSLRLICAASGSIFFYNAMGWYRQAPGKERELVAAITTRGGSTYYADSVKGRFTISRDNAKNTVYLQMNSLKPEDTAVYYCARSSRGKLDYWGQGTQVTVSS | low polyreactivity
32 | QVQLVESGGGLVQAGGSLRLSCAASGSTLYWNAMGWYRQAPGKERELVAGISIGGRTNYADSVKGRFTISRDNAKNTVYLQMNSLKPEDTAVYYCNAENTYLGSRYRPYNYWGQGTQVTVSS | low polyreactivity
33 | QVQLVESGGGLVQAGGSLRLSCADSGFSIWWYDMGWYRQAPGKERELVAAITADGGDTYYADSVKGRFTISRDYANHTDYLQMNSLKPEDTAVYYCAAEYDVYGYYYWGQGTQVTVSS | high polyreactivity
34 | QVQLVESGGGLVQAGGSLRISSAASGNIFLYYAMGWYRQAPGKERELVAYIDSSGASTYYADSVKGRFTISRDNAKNTVYLQMNSLKPEDTAVYFCASDEGTVGGQQLRPLMDYWGQGTQVTVSS | low polyreactivity
35 | QVQLVESGGGLVQAGGSLRLSCAAYGRTFLFYAMGWYIQAPGKERELVAAITRSDGSTYYADSVKGRFTISRDNAKNTVYLQMNSLKPEDTAVYYCAAEYVSILRDYDYWGQGTQVTVSS | low polyreactivity
36 | QVQLVESGGGLVQAGGSLRLSCAASGRTFAPNAMRWSRQAPGKERELVARITWSGTDTYYADSVKGRFTISRDNAKNTVYLQMNSLKPEDTAVYYCAADARYSRRYYYWGQGTQVTVSS | low polyreactivity
37 | QVQLVESGGGLVQAGGSLRLSCAASGRIFGWYAMGWYRQAPGKERELVAAIDGGDDSTYYADSVKGRFTISRDNAKNTVYLQMNSLKPEDTAVYYCAVVGYNWGQGSQVTVSS | low polyreactivity
38 | QVQLVESGGGLVQAGGSLRLSCAASGFTFVYNAMGWYRQAPGKERELVAAINSGGRTNYADSVKGRFTISRDNAKNTVYLQMNSLKPEDTAVYYCAAEVTSFSFGGDATEYYWGQGTQVTVSS | low polyreactivity
39 | QVQLVESGGGLVQAGGSLRLSCAASGRIIGFNAMGWYIQAPAKERELVASIRTTGGSTRYADSVKWRFTISRDNATNTVYLQMNSLKPEDTAVYYCADRWCKTLWQYNYWGQGTQVTVSS | high polyreactivity
40 | QVHLVESGGGLVQAGGSLRLSCAASGSTFHKYALGWYRQAPGKEREYVAAISWSGGSTYYADSVKGRFTISRDNAKYTVYLQMNSLKPEDTAVYFCAARGNRYAYPRKYDYWGQGTQVTVSS | high polyreactivity
41 | QVQLVESGGGLVQGGGSLRLSCAASGRIFKYYAMGWYRQAPGKERELVADISWRGGSTYYADSVKGRFTISRDNAKNTVYLQMNCLKPEDTAVYYCNAVSPRPGFDWGQGTQVTVSS | high polyreactivity
42 | QVQLVESGEGLVQAGGSLRLSCAASGRIFYSNDMGWYRQAPGKEREFVAAITDSGGSTYYADSVKGRFTISRDNAKNTVYLQMNSLKPEDTAGYYCAKRQYQSYIRGPYYYWGQGTQVNVSS | low polyreactivity
43 | QVQLVESGGGLVQAGGSHRLSCAASGSISRRYAMGWYRQAPGKERELVAAINQSGGRTYYADSVKGRFTISRDNAKNTVYLQMNSLKPEDTAVYYCAARLSGYDYWGQGTQVTVSS | high polyreactivity
